Values of other authors in publication PMC8894380.

Target: PRPF8 Jab1 (Saccharomyces cerevisiae) (UniProt P33334)
Sequence (P33334 2148-2395): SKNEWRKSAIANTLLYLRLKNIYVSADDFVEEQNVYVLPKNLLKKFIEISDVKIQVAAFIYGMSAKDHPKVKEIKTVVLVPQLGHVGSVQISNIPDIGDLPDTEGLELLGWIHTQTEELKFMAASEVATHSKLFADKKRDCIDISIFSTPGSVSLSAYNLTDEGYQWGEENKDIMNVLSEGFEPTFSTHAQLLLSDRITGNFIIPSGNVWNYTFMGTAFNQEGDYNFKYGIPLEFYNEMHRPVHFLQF

BRR2 helicase region, sequence (P32639 442-2163): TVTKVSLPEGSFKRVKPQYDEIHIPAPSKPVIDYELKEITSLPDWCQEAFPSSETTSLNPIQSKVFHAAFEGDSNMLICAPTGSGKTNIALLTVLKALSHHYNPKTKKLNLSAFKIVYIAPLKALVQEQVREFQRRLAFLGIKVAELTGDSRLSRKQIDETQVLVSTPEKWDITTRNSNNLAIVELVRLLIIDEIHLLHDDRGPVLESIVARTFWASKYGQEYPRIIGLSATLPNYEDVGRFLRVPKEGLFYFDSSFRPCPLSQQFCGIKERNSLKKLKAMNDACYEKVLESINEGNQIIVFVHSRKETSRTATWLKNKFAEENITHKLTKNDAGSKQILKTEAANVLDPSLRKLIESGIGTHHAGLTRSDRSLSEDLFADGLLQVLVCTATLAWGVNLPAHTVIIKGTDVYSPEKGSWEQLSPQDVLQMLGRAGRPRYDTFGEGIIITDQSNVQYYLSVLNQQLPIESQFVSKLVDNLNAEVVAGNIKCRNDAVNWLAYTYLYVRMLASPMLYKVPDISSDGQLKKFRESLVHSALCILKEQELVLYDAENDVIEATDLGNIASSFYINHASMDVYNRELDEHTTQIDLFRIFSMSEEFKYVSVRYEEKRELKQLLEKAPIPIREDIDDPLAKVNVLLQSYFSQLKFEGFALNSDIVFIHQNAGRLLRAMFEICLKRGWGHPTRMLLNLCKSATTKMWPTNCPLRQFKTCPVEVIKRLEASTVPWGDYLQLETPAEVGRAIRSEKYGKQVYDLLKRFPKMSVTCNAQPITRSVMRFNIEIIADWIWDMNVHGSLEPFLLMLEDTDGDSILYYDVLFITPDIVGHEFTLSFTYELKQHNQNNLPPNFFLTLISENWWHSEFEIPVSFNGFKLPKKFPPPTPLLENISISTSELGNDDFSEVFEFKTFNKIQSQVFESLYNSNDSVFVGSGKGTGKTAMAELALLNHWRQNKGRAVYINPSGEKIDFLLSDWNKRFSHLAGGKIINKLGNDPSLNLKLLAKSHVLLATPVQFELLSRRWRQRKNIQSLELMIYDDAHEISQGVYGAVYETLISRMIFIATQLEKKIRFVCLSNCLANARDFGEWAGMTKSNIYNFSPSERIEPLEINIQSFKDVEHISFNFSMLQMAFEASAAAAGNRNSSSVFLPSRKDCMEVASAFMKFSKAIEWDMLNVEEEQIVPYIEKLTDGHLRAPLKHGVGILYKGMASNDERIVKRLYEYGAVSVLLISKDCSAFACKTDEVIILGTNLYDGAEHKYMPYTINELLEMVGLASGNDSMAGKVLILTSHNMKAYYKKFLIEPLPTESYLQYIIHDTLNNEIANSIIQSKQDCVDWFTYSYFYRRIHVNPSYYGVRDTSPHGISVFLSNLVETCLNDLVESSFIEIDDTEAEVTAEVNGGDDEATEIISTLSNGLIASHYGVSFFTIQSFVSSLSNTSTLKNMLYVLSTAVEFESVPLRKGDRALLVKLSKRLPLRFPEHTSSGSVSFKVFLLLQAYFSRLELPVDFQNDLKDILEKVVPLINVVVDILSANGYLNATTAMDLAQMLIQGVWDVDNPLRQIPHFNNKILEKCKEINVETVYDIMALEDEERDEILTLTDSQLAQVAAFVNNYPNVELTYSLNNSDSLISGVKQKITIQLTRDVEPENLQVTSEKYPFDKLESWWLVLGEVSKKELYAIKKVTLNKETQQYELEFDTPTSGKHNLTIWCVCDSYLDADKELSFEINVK

BRR2 helicase region (from UniProt P32639)
Kd: 8 nM
